Here are results for 2 proteins from publication PMC3155264 (Cell, 2011).

The series “crystal structure” concerns the molecule itself. The experiment in a line: crystal structure.
The series “SEC” concerns the molecule itself. The experiment in a line: SEC.

B1: MinE^I24N*-h (domain or fragment, E. coli, UniProt P0A734 12-88, looked up)
chain: KNTANIAKERLQNIVAERRRSDAEPHYLPQLRKDILEVICKYVQIDPEMVTVQLEQKDGDISILELNVTLPEAEELK
As for B1, the binding result in the series “crystal structure” was “binds”.

B2: MinE^21-88 (domain or fragment, E. coli, UniProt P0A734 21-88, looked up)
chain: RLQIIVAERRRSDAEPHYLPQLRKDILEVICKYVQIDPEMVTVQLEQKDGDISILELNVTLPEAEELK
In the case of B2, in the series “SEC”, the binding result was “binds”.
